Source: the supplement of paper PMC10724198
± gives the standard deviation of the averaged measurements.

tested on: Saccharomyces cerevisiae; assay: protein stability index of tFT-peptide fusion (C-terminal peptide) (PSI (0-1 scale)); higher = more stable (slower turnover); conditions: genetic background: wild type; temperature: 30 C
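Note: PSI is a weighted mean of sequencing reads over stability bins, variants kept only with over 10 reads, mCherry proximal and sfGFP distal, peptide attached via GGGS linker.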

| Sequence | protein stability index |
| --- | --- |
| LVKKVKSSLASL | 0.65 ± 0.076 |
| LVLERKVDSKRK | 0.761 ± 0.084 |
| LVLGRCWMSVPR | 0.535 ± 0.014 |
| LVLSGSAFFYLG | 0.666 ± 0.029 |
| LVLVEAPASRNP | 0.72449 ± 0.00013 |
| LVRCRKGEGRGA | 0.701 ± 0.032 |
| LVRDGQSHSVWN | 0.655 ± 0.098 |
| LVRRTLWGSGCL | 0.666 ± 0.013 |
| LVSGCLCRKVLV | 0.531 ± 0.0017 |
| LVVSLSYSFRSV | 0.585 ± 0.045 |
| LWGSGVYGKNEC | 0.703 ± 0.052 |
| LWKAGRIGTIWS | 0.714 ± 0.016 |
| LWLCLERFPCSR | 0.74 ± 0.042 |
| LWPQFPPRQLVD | 0.755 ± 0.069 |
| LWPSLRRFHSTS | 0.714 ± 0.2 |
| LWVGGKRREVMG | 0.706 ± 0.032 |
| LWVPPRSGRFGG | 0.681 ± 0.014 |
| LWWASRLRVPTP | 0.674 ± 0.093 |
| LYCLVEGVYTLI | 0.662 ± 0.06 |
| LYGREPAGAEPT | 0.633 ± 0.022 |
| LYHARTIRQSAK | 0.701 ± 0.018 |
| LYPVPLSPPPAD | 0.676 ± 0.026 |
| LYVFFRFPSCLS | 0.555 ± 0.018 |
| MAINAGYYKWRH | 0.767 ± 0.053 |
| MALAVRVVNCGA | 0.591 ± 0.0087 |
| MATLRVPTLSPD | 0.5743 ± 0.004 |

| Sequence | protein stability index |
| --- | --- |
| MAWTGIDAEVCV | 0.67 ± 0.028 |
| MCGENVSWSCRS | 0.685 ± 0.038 |
| MEDSRSDSSGSP | 0.6534 ± 0.00074 |
| MESIIHPNSGIV | 0.744 ± 0.13 |
| MFGCGSRGSGVV | 0.695 ± 0.093 |
| MFLPNPTLLTLN | 0.559 ± 0.022 |
| MGGLFGWLVFWI | 0.653 ± 0.27 |
| MGGMGRGGRREI | 0.692 ± 0.022 |
| MGKEELDKKDEG | 0.625 ± 0.032 |
| MGYYDGIRYKEV | 0.735 ± 0.092 |
| MILNLLLFRSKK | 0.67 ± 0.05 |
| MKPPIGGNKPGL | 0.726 ± 0.017 |
| MKRRSEGDLLQP | 0.64 ± 0.047 |
| MKSSPFRASLDT | 0.676 ± 0.094 |
| MNLAGRRAVEEW | 0.659 ± 0.024 |
| MNPRLTNKNNSS | 0.765 ± 0.058 |
| MNPSADYSIGAR | 0.688 ± 0.062 |
| MNVHGHERLRPS | 0.678 ± 0.066 |
| MPARGLAWLPVS | 0.654 ± 0.064 |
| MPPRNAENRSLP | 0.6793 ± 0.003 |
| MPRSGRLSSRKE | 0.718 ± 0.023 |
| MPVWGGSASRAL | 0.713 ± 0.066 |
| MRAIRPGHSDLV | 0.629 ± 0.043 |
| MRRAQADRVYRL | 0.7097 ± 0.0024 |
| MRRNGRNILGVA | 0.729 ± 0.054 |
| MRVKRVEVVRGG | 0.6903 ± 0.0061 |

| Sequence | protein stability index |
| --- | --- |
| MRWVISEDPGFR | 0.695 ± 0.018 |
| MSGPHGGVADRD | 0.676 ± 0.054 |
| MSKSLQTSSHKT | 0.663 ± 0.018 |
| MTEFSESEGFIF | 0.735 ± 0.064 |
| MTMGNWLRLKRR | 0.62 ± 0.024 |
| MTSCAVDHPERR | 0.703 ± 0.0047 |
| MTWQSASGNRVA | 0.699 ± 0.056 |
| MVISTRARCMFF | 0.6727 ± 0.0059 |
| MVSMFRLFLGLV | 0.589 ± 0.016 |
| MVWCVSRGEGPV | 0.762 ± 0.037 |
| MVYLSSQYSATT | 0.661 ± 0.039 |
| MWVRKPNGNGSF | 0.6877 ± 0.0055 |
| MYLLSFRALGSS | 0.54 ± 0.0098 |
| MYTCMSSNPLAC | 0.66 ± 0.039 |
| NAKQVYVSVMTR | 0.5 ± 0.063 |
| NCAPVPLSPADS | 0.685 ± 0.032 |
| NEGYLIQGVSMG | 0.706 ± 0.0084 |
| NELRREVLEEDL | 0.657 ± 0.0085 |
| NFFGPAIFLRRR | 0.678 ± 0.022 |
| NFVLACYSYNYW | 0.523 ± 0.011 |
| NGREHHLESSYN | 0.654 ± 0.038 |
| NGSGVSEDRDEK | 0.6298 ± 0.0034 |
| NGTLQKGGLRRQ | 0.6547 ± 0.00088 |
| NGVLGYAVLEGE | 0.705 ± 0.044 |
| NHHETRNDCSST | 0.771 ± 0.12 |
| NHQKFILAACGT | 0.68 ± 0.029 |

| Sequence | protein stability index |
| --- | --- |
| NIKLKVCKEEMR | 0.5706 ± 0.0012 |
| NIKNQEVKTHDT | 0.6796 ± 0.0054 |
| NIKPEDRNSTNA | 0.633 ± 0.087 |
| NIRETVILRIMQ | 0.606 ± 0.048 |
| NIYDFQPPVSGH | 0.77 ± 0.052 |
| NKARVDCNRSRC | 0.781 ± 0.2 |
| NKDEVHRRRGRI | 0.718 ± 0.017 |
| NKDKNDDRKLLG | 0.723 ± 0.12 |
| NKDQKTKKNKRK | 0.661 ± 0.075 |
| NKFETCIANMYI | 0.718 ± 0.058 |
| NKHVMELPGEPG | 0.647 ± 0.0079 |
| NKIDAGTPEKHR | 0.626 ± 0.041 |
| NKIKKTQKKKLG | 0.766 ± 0.1 |
| NKKDCFRNRKWE | 0.593 ± 0.03 |
| NKKKKHKNSKNN | 0.704 ± 0.055 |
| NKKKKKKSTKRN | 0.691 ± 0.044 |
| NKKKKQRGKKQK | 0.725 ± 0.045 |
| NKKKKQRINIRG | 0.749 ± 0.068 |
| NKRKNVFESTNA | 0.678 ± 0.019 |
| NLCRFHFRNRFS | 0.565 ± 0.011 |
| NLDFGYAERWQG | 0.768 ± 0.06 |
| NLHLVRNEELVL | 0.6743 ± 0.0036 |
| NLITKWTCMRLF | 0.511 ± 0.014 |
